From publication PMC9275217, “Improvement of Fusel Alcohol Production by Engineering of the Yeast Branched-Chain Amino Acid Aminotransaminase” (Applied and Environmental Microbiology, 2022)

Experiments:
[1] = target: T1, Bat1ΔN16^WT (Saccharomyces cerevisiae, UniProt P38891); test: NADH absorbance […] nm, coupled to glutamate dehydrogenase; type: biochemical; details: reverse reaction; 2 mM KG, 5 mM NAD+, 50 μM PLP, 200 mM potassium phosphate pH 8.5, 30°C; apparent
T1 construct: gene BAT1; first 16 residues (mitochondrial-targeting signal) removed; N-terminal His-tag (pET53-dest, tag not reported cut); E. coli BL21(DE3); dimer
T1 sequence (P38891 17-393): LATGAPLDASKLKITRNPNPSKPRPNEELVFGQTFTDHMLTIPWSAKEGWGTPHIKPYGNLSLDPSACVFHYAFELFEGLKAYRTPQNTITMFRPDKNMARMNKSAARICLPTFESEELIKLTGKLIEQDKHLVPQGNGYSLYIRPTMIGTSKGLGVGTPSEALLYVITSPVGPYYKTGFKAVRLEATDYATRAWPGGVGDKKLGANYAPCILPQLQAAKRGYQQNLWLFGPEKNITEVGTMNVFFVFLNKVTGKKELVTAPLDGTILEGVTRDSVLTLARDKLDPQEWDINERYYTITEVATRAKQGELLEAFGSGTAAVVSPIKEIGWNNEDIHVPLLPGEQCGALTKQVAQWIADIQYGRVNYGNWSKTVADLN

[2] = target: T2, Bat1ΔN16^WT (Saccharomyces cerevisiae, UniProt P38891, G333S); test: as above; type: biochemical; details: reverse reaction; 2 mM KG, 5 mM NAD+, 50 μM PLP, 200 mM potassium phosphate pH 8.5, 30°C; apparent
T2 construct: gene BAT1; first 16 residues (mitochondrial-targeting signal) removed; N-terminal His-tag (pET53-dest, tag not reported cut); E. coli BL21(DE3); dimer
T2 sequence (P38891 17-393 G333S): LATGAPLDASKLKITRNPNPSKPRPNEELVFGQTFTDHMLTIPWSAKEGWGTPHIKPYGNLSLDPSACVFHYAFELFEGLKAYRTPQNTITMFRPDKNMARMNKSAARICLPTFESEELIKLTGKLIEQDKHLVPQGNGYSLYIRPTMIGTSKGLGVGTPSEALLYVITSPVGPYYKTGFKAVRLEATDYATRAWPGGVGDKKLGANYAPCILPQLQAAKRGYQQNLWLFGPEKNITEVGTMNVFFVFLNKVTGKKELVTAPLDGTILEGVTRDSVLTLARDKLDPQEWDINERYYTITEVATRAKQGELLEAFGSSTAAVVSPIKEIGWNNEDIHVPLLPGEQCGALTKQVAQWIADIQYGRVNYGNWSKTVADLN

[3] = substrate: CC[C@H](C)C(=O)C(=O)O; test: purified protein; type: biochemical, Saccharomyces cerevisiae; details: forward reaction, 100 mM Glu, 50 μM PLP, 100 mM NH4Cl, 0.25 mM NADH, 200 mM potassium phosphate pH 8.0, 30°C, apparent
[4] = substrate: CC(C)CC(=O)C(=O)O; test: purified protein; type: biochemical, Saccharomyces cerevisiae; details: forward reaction, 100 mM Glu, 50 μM PLP, 100 mM NH4Cl, 0.25 mM NADH, 200 mM potassium phosphate pH 8.0, 30°C, apparent
[5] = substrate: CC(C)C(=O)C(=O)O; test: purified protein; type: biochemical, Saccharomyces cerevisiae; details: forward reaction, 100 mM Glu, 50 μM PLP, 100 mM NH4Cl, 0.25 mM NADH, 200 mM potassium phosphate pH 8.0, 30°C, apparent
[6] = substrate: CC(C)C[C@H](N)C(=O)O; test: purified protein; details: reverse reaction, 2 mM KG, 5 mM NAD+, 50 μM PLP, 200 mM potassium phosphate pH 8.5, 30°C, apparent
[7] = substrate: CC(C)[C@H](N)C(=O)O; test: purified protein; details: reverse reaction, 2 mM KG, 5 mM NAD+, 50 μM PLP, 200 mM potassium phosphate pH 8.5, 30°C, apparent
[8] = substrate: CC[C@H](C)[C@H](N)C(=O)O; test: purified protein; details: reverse reaction, 2 mM KG, 5 mM NAD+, 50 μM PLP, 200 mM potassium phosphate pH 8.5, 30°C, apparent

| Molecule | Km [1] | Km [2] | Km [3] | kcat [3] | kcat/Km [3] | Km [4] | kcat [4] | kcat/Km [4] | Km [5] | kcat [5] | kcat/Km [5] | Km [6] | kcat [6] | kcat/Km [6] | Km [7] | kcat [7] | kcat/Km [7] | Km [8] | kcat [8] | kcat/Km [8] |
| --- | --- | --- | --- | --- | --- | --- | --- | --- | --- | --- | --- | --- | --- | --- | --- | --- | --- | --- | --- | --- |
| CC(C)C[C@H](N)C(=O)O [Leu] | 0.285 ± 0.0679 mM | 3.08 ± 1.42 mM |  |  |  |  |  |  |  |  |  |  |  |  |  |  |  |  |  |  |
| Bat2^WT (Saccharomyces cerevisiae S288C; G316S) (protein, N-terminal His-tag (pET53-dest, tag not reported cut); E. coli BL21(DE3); dimer) MTLAPLDASKVKITTTQHASKPKPNSELVFGKSFTDHMLTAEWTAEKGWGTPEIKPYQNLSLDPSAVVFHYAFELFEGMKAYRTVDNKITMFRPDMNMKRMNKSAQRICLPTFDPEELITLIGKLIQQDKCLVPEGKGYSLYIRPTLIGTTAGLGVSTPDRALLYVICCPVGPYYKTGFKAVRLEATDYATRAWPGGCGDKKLGANYAPCVLPQLQAASRGYQQNLWLFGPNNNITEVGTMNAFFVFKDSKTGKKELVTAPLDGTILEGVTRDSILNLAKERLEPSEWTISERYFTIGEVTERSKNGELLEAFGSSTAAIVSPIKEIGWKGEQINIPLLPGEQTGPLAKEVAQWINGIQYGETEHGNWSRVVTDLN |  |  | 308 ± 134 µM | 2.01 ± 0.282 s⁻¹ | 6530 M⁻¹ s⁻¹ | 681 ± 189 µM | 5.42 ± 0.615 s⁻¹ | 7960 M⁻¹ s⁻¹ | 1730 ± 826 µM | 1.79 ± 0.521 s⁻¹ | 1030 M⁻¹ s⁻¹ | 3890 ± 1060 µM | 1.61 s⁻¹ | 414 M⁻¹ s⁻¹ | 13300 ± 3440 µM | 1.4 s⁻¹ | 106 M⁻¹ s⁻¹ | 3400 ± 1140 µM | 1.8 s⁻¹ | 529 M⁻¹ s⁻¹ |
| Bat2^WT (Saccharomyces cerevisiae S288C) (protein, N-terminal His-tag (pET53-dest, tag not reported cut); E. coli BL21(DE3); dimer) MTLAPLDASKVKITTTQHASKPKPNSELVFGKSFTDHMLTAEWTAEKGWGTPEIKPYQNLSLDPSAVVFHYAFELFEGMKAYRTVDNKITMFRPDMNMKRMNKSAQRICLPTFDPEELITLIGKLIQQDKCLVPEGKGYSLYIRPTLIGTTAGLGVSTPDRALLYVICCPVGPYYKTGFKAVRLEATDYATRAWPGGCGDKKLGANYAPCVLPQLQAASRGYQQNLWLFGPNNNITEVGTMNAFFVFKDSKTGKKELVTAPLDGTILEGVTRDSILNLAKERLEPSEWTISERYFTIGEVTERSKNGELLEAFGSGTAAIVSPIKEIGWKGEQINIPLLPGEQTGPLAKEVAQWINGIQYGETEHGNWSRVVTDLN |  |  | 150 ± 59.4 µM | 5.48 ± 1.04 s⁻¹ | 36500 M⁻¹ s⁻¹ | 212 ± 61 µM | 11.6 ± 1.82 s⁻¹ | 54700 M⁻¹ s⁻¹ | 180 ± 44.4 µM | 8.05 ± 1.02 s⁻¹ | 44700 M⁻¹ s⁻¹ | 189 ± 60 µM | 2.3 s⁻¹ | 12200 M⁻¹ s⁻¹ | 511 ± 111 µM | 2.71 s⁻¹ | 5300 M⁻¹ s⁻¹ | 119 ± 38.9 µM | 2.61 s⁻¹ | 21900 M⁻¹ s⁻¹ |
| Bat1ΔN16^WT (Saccharomyces cerevisiae S288C) (protein, first 16 residues (mitochondrial-targeting signal) removed; N-terminal His-tag (pET53-dest, tag not reported cut); E. coli BL21(DE3); dimer) LATGAPLDASKLKITRNPNPSKPRPNEELVFGQTFTDHMLTIPWSAKEGWGTPHIKPYGNLSLDPSACVFHYAFELFEGLKAYRTPQNTITMFRPDKNMARMNKSAARICLPTFESEELIKLTGKLIEQDKHLVPQGNGYSLYIRPTMIGTSKGLGVGTPSEALLYVITSPVGPYYKTGFKAVRLEATDYATRAWPGGVGDKKLGANYAPCILPQLQAAKRGYQQNLWLFGPEKNITEVGTMNVFFVFLNKVTGKKELVTAPLDGTILEGVTRDSVLTLARDKLDPQEWDINERYYTITEVATRAKQGELLEAFGSGTAAVVSPIKEIGWNNEDIHVPLLPGEQCGALTKQVAQWIADIQYGRVNYGNWSKTVADLN |  |  | 218 ± 111 µM | 4.73 ± 1.29 s⁻¹ | 21700 M⁻¹ s⁻¹ | 323 ± 101 µM | 15.4 ± 2.92 s⁻¹ | 47700 M⁻¹ s⁻¹ | 298 ± 100 µM | 9.55 ± 1.92 s⁻¹ | 32100 M⁻¹ s⁻¹ |  |  |  | 454 ± 123 µM | 3.37 s⁻¹ | 7420 M⁻¹ s⁻¹ | 220 ± 102 µM | 3.74 s⁻¹ | 17000 M⁻¹ s⁻¹ |
| Bat1ΔN16^WT (Saccharomyces cerevisiae S288C; G333S) (protein, first 16 residues (mitochondrial-targeting signal) removed; N-terminal His-tag (pET53-dest, tag not reported cut); E. coli BL21(DE3); dimer) LATGAPLDASKLKITRNPNPSKPRPNEELVFGQTFTDHMLTIPWSAKEGWGTPHIKPYGNLSLDPSACVFHYAFELFEGLKAYRTPQNTITMFRPDKNMARMNKSAARICLPTFESEELIKLTGKLIEQDKHLVPQGNGYSLYIRPTMIGTSKGLGVGTPSEALLYVITSPVGPYYKTGFKAVRLEATDYATRAWPGGVGDKKLGANYAPCILPQLQAAKRGYQQNLWLFGPEKNITEVGTMNVFFVFLNKVTGKKELVTAPLDGTILEGVTRDSVLTLARDKLDPQEWDINERYYTITEVATRAKQGELLEAFGSSTAAVVSPIKEIGWNNEDIHVPLLPGEQCGALTKQVAQWIADIQYGRVNYGNWSKTVADLN |  |  |  |  |  | 1570 ± 505 µM | 4.95 ± 0.945 s⁻¹ | 3150 M⁻¹ s⁻¹ |  |  |  |  |  |  |  |  |  |  |  |  |
